Measurements reported in patent publication US20230149532A1.
Where two headings read alike, the source gives them in different places.

Tests used:
[1] = biological target: ACE-2 receptor on Vero e6 cells (African green monkey (Vero e6 cells)); experiment: two-color confocal microscopy, co-localization on Vero e6 cells (n=10 analyses)
[2] = biological target: ACE-2 receptor on Vero e6 cells (African green monkey (Vero e6 cells))

Row | Substance | fold increase over the non-specific H7 control [1] | particles per field (particles per field) [1] | particles per field (particles per field) [2]
1 | angiotensin II (from UniProt P01019 25-32) (peptide) | 2.79 fold | 452 | 
2 | plant-produced recombinant H7 strain influenza HA protein |  |  | 122
